For assay [1], the target named is T1, amyloid-β 42 (UniProt P05067 672-713). Briefly: native MS.
The target of assay [2] is T1, amyloid-β 42. Put plainly: NMR titration.

B1: Cytochrome c (natural protein)
chain: not shown
modifications: covalently attached heme group
Consider B1, for which, in the assay with amyloid-β 42 [1], the “stoichiometry N” value was 1 Cyt c : Aβ42.

B2: 15N-labeled Cyt c with 104 amino acid residues (natural protein)
chain: not shown
modifications: 15N-labeled; covalently attached heme group
Turning to B2, the binding result with amyloid-β 42 [2] was “binds”.

For the origin of these results see publication PMC10208028 (Chemical Science, 2023).
